Measured values published in patent US20220041718A1 (AUTOLUS, published 2022).
Residue numbers refer to the chain shown, from its start. Names may count otherwise.

B1: hJovi-1 variant IgG, VH T28K, Y32F, A100N, N103M; VL N35M (antibody, V domains shown)
VH: QVQLVQSGAEVKKPGASVKVSCKASGYKFTGFVMHWVRQAPGQGLEWMGFINPYNDDIQSNERFRGRVTMTRDTSISTAYMELSRLRSDDTAVYYCARGNGYMFDGAYRFFDFWGQGTMVTVSS
VL: DIVMTQSPLSLPVTPGEPASISCRSSQRLVHSNGMTYLHWYLQKPGQSPRLLIYRVSNRFPGVPDRFSGSGSGTDFTLKISRVEAEDVGVYYCSQSTHVPYTFGQGTKLEIK
notes: IgG format
B2: hJovi-1 variant IgG, VH Y27W, T28K, Y32F, A100N; VL unmutated (antibody, V domains shown)
VH: B1 VH with Y27W, M103N
VL: B1 VL with M35N
notes: IgG format
B3: hJovi-1 variant IgG, VH T28K, Y32F, A100N, Y102F, N103M; VL N35K (antibody, V domains shown)
VH: B1 VH with Y102F
VL: B1 VL with M35K
notes: IgG format
B4: hJovi-1 variant IgG, VH Y27N, T28K, Y32F, A100N; VL unmutated (antibody, V domains shown)
VH: B1 VH with Y27N, M103N
VL: B1 VL with M35N
notes: IgG format
B5: hJovi-1 variant IgG, VH V2R, T28K, Y32F, A100N; VL unmutated (antibody, V domains shown)
VH: B1 VH with V2R, M103N
VL: B1 VL with M35N
notes: IgG format
B6: hJovi-1 variant IgG, VH T28K, Y32F, A100N; VL N35K (antibody, V domains shown)
VH: B1 VH with M103N
VL: B1 VL with M35K
notes: IgG format
B7: hJovi-1 variant IgG, VH T28K, Y32F, A100N, Y102F; VL N35R (antibody, V domains shown)
VH: B1 VH with Y102F, M103N
VL: B1 VL with M35R
notes: IgG format
B8: hJovi-1 variant IgG, VH T28K, Y32F, A100N, N103M; VL N35R (antibody, V domains shown)
VH: B1 VH
VL: B1 VL with M35R
notes: IgG format
B9: hJovi-1 variant IgG, VH T28K, Y32F, A100N, N103W; VL unmutated (antibody, V domains shown)
VH: B1 VH with M103W
VL: B1 VL with M35N
notes: IgG format
B10: hJovi-1 variant IgG, VH T28K, Y32F, A100N, Y102L, N103W; VL N35K (antibody, V domains shown)
VH: B1 VH with Y102L, M103W
VL: B1 VL with M35K
notes: IgG format
B11: hJovi-1 variant IgG, VH T28K, Y32F, A100N, N103M; VL N35Y (antibody, V domains shown)
VH: B1 VH
VL: B1 VL with M35Y
notes: IgG format
B12: hJovi-1 variant IgG, VH T28K, Y32F, R98K, A100N; VL unmutated (antibody, V domains shown)
VH: B1 VH with R98K, M103N
VL: B1 VL with M35N
notes: IgG format
B13: hJovi-1 variant IgG, VH T28K, Y32F, A100N; VL N35F (antibody, V domains shown)
VH: B1 VH with M103N
VL: B1 VL with M35F
notes: IgG format
B14: hJovi-1 variant IgG, VH T28K, Y32F, A100N, Y102F, N103M; VL N35R (antibody, V domains shown)
VH: B1 VH with Y102F
VL: B1 VL with M35R
notes: IgG format
B15: hJovi-1 variant IgG, VH T28K, Y32F, A100N, Y102L, N103W; VL N35R (antibody, V domains shown)
VH: B1 VH with Y102L, M103W
VL: B1 VL with M35R
notes: IgG format
B16: hJovi-1 variant IgG, VH Y27F, T28K, Y32F, A100N; VL unmutated (antibody, V domains shown)
VH: B1 VH with Y27F, M103N
VL: B1 VL with M35N
notes: IgG format
B17: hJovi-1 variant IgG, VH T28K, Y32F, A100N, N103S; VL unmutated (antibody, V domains shown)
VH: B1 VH with M103S
VL: B1 VL with M35N
notes: IgG format
B18: hJovi-1 variant IgG, VH T28K, Y32F, A100N, N103Y; VL unmutated (antibody, V domains shown)
VH: B1 VH with M103Y
VL: B1 VL with M35N
notes: IgG format
B19: hJovi-1 variant IgG, VH T28K, Y32F, A100N; VL N35R (antibody, V domains shown)
VH: B1 VH with M103N
VL: B1 VL with M35R
notes: IgG format
B20: hJovi-1 variant IgG, VH T28K, Y32F, A100N, N103Q; VL unmutated (antibody, V domains shown)
VH: B1 VH with M103Q
VL: B1 VL with M35N
notes: IgG format
B21: hJovi-1 variant IgG, VH T28K, Y32F, A100N, N103M; VL unmutated (antibody, V domains shown)
VH: B1 VH
VL: B1 VL with M35N
notes: IgG format
B22: hJovi-1 variant IgG, VH T28K, Y32F, A100N, Y102F; VL unmutated (antibody, V domains shown)
VH: B1 VH with Y102F, M103N
VL: B1 VL with M35N
notes: IgG format
B23: hJovi-1 variant IgG, VH V2K, T28K, Y32F, A100N; VL unmutated (antibody, V domains shown)
VH: B1 VH with V2K, M103N
VL: B1 VL with M35N
notes: IgG format
B24: hJovi-1 variant IgG, VH T28K, Y32F, A100N, Y102L, N103M; VL N35R (antibody, V domains shown)
VH: B1 VH with Y102L
VL: B1 VL with M35R
notes: IgG format
B25: hJovi-1 variant IgG, VH T28K, Y32F, A100N, Y102F, N103M; VL N35F (antibody, V domains shown)
VH: B1 VH with Y102F
VL: B1 VL with M35F
notes: IgG format
B26: hJovi-1 variant IgG, VH T28R, Y32F, A100N; VL unmutated (antibody, V domains shown)
VH: B1 VH with K28R, M103N
VL: B1 VL with M35N
notes: IgG format

target: T1, Recombinant purified TRBC1 (human, UniProt P01850 1-129, limits assumed); experiment: SPR, IgG captured on anti-human Fc, TRBC1 as analyte
T1 construct: Construct not described (may be a soluble TCR carrying TRBC1); also called TCR beta constant region 1; soluble recombinant biotinylated TRBC1
T1 sequence (P01850 1-129 limits assumed): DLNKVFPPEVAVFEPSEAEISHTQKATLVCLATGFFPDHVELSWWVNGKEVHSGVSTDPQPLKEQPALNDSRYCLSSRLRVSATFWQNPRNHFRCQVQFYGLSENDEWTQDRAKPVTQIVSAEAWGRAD
Description: (§1) A series S CM5 sensor chip was immobilised via amine coupling, with an anti-human Fc capture antibody to a density of 9000-10000 RU, using a Biacore T200 instrument. HBS-P+ buffer was used as running buffer in all experimental conditions. The test anti-TRBC2 antibodies (Table 1) were captured on flow cells 2, 3 and 4 to a density of 100-300 RU. Recombinant purified TRBC1 or TRBC2 at known concentrations were used as the ‘analyte’ and injected over the respective flow cells with 150s contact time and 300s dissociation at 30 μl/minute of flow rate. In each experiment, flow cell 1 was unmodified and used for reference subtraction. A ‘0 concentration’ sensorgram of buffer alone was used as a double reference subtraction to factor for drift. Data were fit to a 1:1 Langmuir binding model. Since a capture system was used, a local Rₘₐₓ parameter was used for the data fitting in each case.

Kd	binding result	Binder
648 nM		B1
21000 nM		B2
9310 nM		B3
74300 nM		B4
5110 nM		B5
1000 nM		B6
18900 nM		B7
290 nM		B8
1650 nM		B9
	no binding	B10
733 nM		B11
4660 nM		B12
2810 nM		B13
7910 nM		B14
	no binding	B15
4480 nM		B16
3540 nM		B17
1580 nM		B18
929 nM		B19
1770 nM		B20
376 nM		B21
	no binding	B22
2400 nM		B23
	no binding	B24
11300 nM		B25
1440 nM		B26

target: T2, Recombinant purified TRBC2 (human, UniProt A0A5B9 1-129, limits assumed); experiment: SPR, IgG captured on anti-human Fc, TRBC2 as analyte
T2 construct: Construct not described (may be a soluble TCR carrying TRBC2); also called TCR beta constant region 2; soluble recombinant biotinylated TRBC2
T2 sequence (A0A5B9 1-129 limits assumed): as the sequence (P01850 1-129 limits assumed) above, with N3K, K4N, E9K, F36Y counted along it
Description: as §1

Kd	Binder
131 nM	B1
3060 nM	B2
909 nM	B3
6950 nM	B4
1600 nM	B5
192 nM	B6
2700 nM	B7
90.3 nM	B8
425 nM	B9
1720 nM	B10
172 nM	B11
1080 nM	B12
646 nM	B13
968 nM	B14
1510 nM	B15
1210 nM	B16
983 nM	B17
339 nM	B18
202 nM	B19
484 nM	B20
83.6 nM	B21
2610 nM	B22
883 nM	B23
1900 nM	B24
1320 nM	B25
582 nM	B26
